Substitutions are numbered along the chain they refer to. Names and notes keep the numbering of the source. One block for each binder: values may come before it.
How the values were obtained:
VHH14-Fc (huarizo) [1] = assay: BLI; Octet RED384, 25 °C, 1× Kinetics buffer; VHH-Fc-loaded biosensors, mPlexin-B1 wildtype or H34Y P240Q at 400-6.25 nM, 300 s association, 600 s dissociation
VHH14-Fc (huarizo) [2] = assay: BLI; Octet RED384, 25 °C, 1× Kinetics buffer; purified VHH-Fc captured on Protein G biosensors, mouse Plexin-B1 in solution (VHH14-Fc: 10-3.75 nM, 1800 s association, 7200 s dissociation; VHH15-Fc: 160-10 nM, 600 s, 510 s); global 1:1 fit

Sequence of VHH14-Fc (huarizo) (heavy, as listed by the source): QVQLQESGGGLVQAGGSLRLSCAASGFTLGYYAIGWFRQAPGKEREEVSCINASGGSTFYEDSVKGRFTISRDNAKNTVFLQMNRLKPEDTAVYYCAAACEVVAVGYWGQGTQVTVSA

Kd (VHH14-Fc (huarizo) [1]): 3.13 nM | Kd (VHH14-Fc (huarizo) [2]): 0.237 nM
B1: mouse Plexin-B1 (20–535)-6xHis (domain or fragment)
chain: LRSPLPAAFTANGTHLQHLARDPTTGTLYVGATNFLFQLSPGLQLEAVVSTGPVNDSRDCLPPVIPDECPQAQPTNNPNQLLLVSPEALVVCGSVHQGICELRSLGQIRQLLLRPERPGDTQYVAANDPAVSTVGLVAQGLVGEPLLFVGRGYTSRGVGGGIPPITTRALRPPDPQAAFSYEETAKLAVGRLSEYSHHFVSAFVRGASAYFLFLRRDLKAPSRAFRAYVSRVCLQDQHYYSYVELPLACQGGRYGLIQAAAVATSKEVARGDVLFAAFSSVAPPTVDWPLSASTGASGTSVLCAFPLDEVDQLANYTRDACYTREGRAENGTKVADIAYDVLSDCAQLPVDTPDAFPCGSDHTPSPMVSCVPLEATPILELPGVQLTAVAVTMEDGHTIAFLGDSQGQLHRVYLGPGRSAAPYSKQSIQPGSPVNRDLTFDGTFEHLYVATQTTLVKVPVAPCAQHLDCDSCLAHRDPYCGWCVLLGRCSRRSECSRDQGPEQWLWSFQPELGCLR

Kd (VHH14-Fc (huarizo) [1]): 255 nM
B2: mPlexin-B1 (20–535) H34Y P240Q (domain or fragment)
chain: B1 chain with H15Y, P221Q

Source: publication PMC10206189
